Measurements: US20240018201A1

What was measured:
[1] = molecular target: human TNF alpha (Miltenyi, from yeast, Catalog no. 130-094) (human) (UniProt P01375); assay: SPR, Biacore 8K
[2] = molecular target: Llama Anti-human LC-kappa VHH Single Domain Antibody [Biotin] (CAT #: NABG-118); assay: BLI, biotinylated VHH ligand on streptavidin biosensor
[3] = molecular target: human TNF alpha (Miltenyi, from yeast, Catalog no. 130-094) (human) (UniProt P01375); assay: SPR, Biacore 8K (column head prints nM; koff/kon gives this number in M)

UniProt P01375, sequence (P01375 77-233 limits assumed): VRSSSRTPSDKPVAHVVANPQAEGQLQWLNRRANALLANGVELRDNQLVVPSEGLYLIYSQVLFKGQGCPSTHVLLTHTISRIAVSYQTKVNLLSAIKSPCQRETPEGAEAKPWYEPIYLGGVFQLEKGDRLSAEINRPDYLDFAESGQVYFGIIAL

| Substance | % KD to wildtype [1] | % koff to wildtype [1] | % kon to wildtype [1] | koff [1] | kon [1] | % Response BLI of construct in comparison to wildtype (=% Binding to Kappa-ligand) [2] | Kd [3] |
| --- | --- | --- | --- | --- | --- | --- | --- |
| Adalimumab variant with Gln199Trp light chains (L234A/L235A Fc) (antibody) | 99.4% | 96.1% | 96.1% | 0.000208 s⁻¹ | 3.94e+06 M⁻¹ s⁻¹ | 1.66% | 0.0528 nM |
| Adalimumab with WT light chain (no mutations) and L234A/L235A human IgG Fc variant (antibody) | – | – | – | – | – | 100% | 0.0531 nM |
| Adalimumab variant with His198Arg light chains (L234A/L235A Fc) (antibody) | 104% | 92.7% | 92.7% | 0.00021 s⁻¹ | 3.8e+06 M⁻¹ s⁻¹ | 7.87% | 0.0553 nM |
| Adalimumab variant with Thr109Arg + Ser202Arg light chains (L234A/L235A Fc) (antibody) | 110% | 90.5% | 90.5% | 0.000216 s⁻¹ | 3.71e+06 M⁻¹ s⁻¹ | 12.5% | 0.0583 nM |
